Laboratory results from article PMC10786891, “Massively parallel profiling of RNA-targeting CRISPR-Cas13d”.

T1: EsCas13d, nuclease-dead (Eubacterium siraeum, UniProt B0MS50, R295A;H300A;R849A;H854A)
T1 sequence: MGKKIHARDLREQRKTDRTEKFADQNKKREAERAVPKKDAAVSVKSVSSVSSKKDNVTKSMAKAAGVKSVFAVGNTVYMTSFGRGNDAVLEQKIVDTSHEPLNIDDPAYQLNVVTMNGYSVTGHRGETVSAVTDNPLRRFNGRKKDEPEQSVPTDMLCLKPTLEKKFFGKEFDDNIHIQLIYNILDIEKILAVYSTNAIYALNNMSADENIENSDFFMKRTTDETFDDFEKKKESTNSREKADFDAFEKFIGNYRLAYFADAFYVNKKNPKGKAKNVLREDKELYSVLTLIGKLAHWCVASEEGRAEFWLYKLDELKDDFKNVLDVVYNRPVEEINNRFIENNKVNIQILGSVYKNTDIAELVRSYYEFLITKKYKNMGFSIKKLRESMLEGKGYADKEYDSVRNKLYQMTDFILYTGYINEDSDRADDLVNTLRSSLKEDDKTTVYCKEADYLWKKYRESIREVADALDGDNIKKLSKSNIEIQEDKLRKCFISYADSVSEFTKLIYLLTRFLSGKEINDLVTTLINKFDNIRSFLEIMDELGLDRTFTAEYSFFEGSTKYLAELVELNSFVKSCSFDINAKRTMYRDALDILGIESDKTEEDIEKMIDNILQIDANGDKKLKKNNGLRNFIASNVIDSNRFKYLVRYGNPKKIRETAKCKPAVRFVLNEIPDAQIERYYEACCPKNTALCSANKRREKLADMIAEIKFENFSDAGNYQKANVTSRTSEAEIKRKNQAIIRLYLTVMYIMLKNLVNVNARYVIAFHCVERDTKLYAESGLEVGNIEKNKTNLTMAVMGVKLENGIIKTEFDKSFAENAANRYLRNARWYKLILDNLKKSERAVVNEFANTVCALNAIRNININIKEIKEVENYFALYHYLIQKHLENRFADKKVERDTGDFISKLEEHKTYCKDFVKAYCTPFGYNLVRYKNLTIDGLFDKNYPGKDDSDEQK

B1: target 1 C7A,U19A (mixed)
RNA 1: CACCCGUGCAAAAAUGCAGGGGUCUAAAACUGAGCGGAUAACCUCUCUAUGG
RNA 2: GGGAAUGGAUCCACAUCUACGAAUUCGUACCAAAGAGAGGUUAUACGCUCACCGAGAUCGGAAGAGCACACGU
B2: target 1 insA 3' of 4,insA 3' of 3 (mixed)
RNA 1: CACCCGUGCAAAAAUGCAGGGGUCUAAAACUGAGCGGAUAACCUCUCUAUGG
RNA 2: GGGAAUGGAUCCACAUCUACGAAUUCGUACCAUAGAGAGGUUAUCCGCAUACACCGAGAUCGGAAGAGCACACGU
B3: target 1 insC 3' of 22,insA 3' of 5 (mixed)
RNA 1: CACCCGUGCAAAAAUGCAGGGGUCUAAAACUGAGCGGAUAACCUCUCUAUGG
RNA 2: GGGAAUGGAUCCACAUCUACGAAUUCGUACCCAUAGAGAGGUUAUCCGACUCACCGAGAUCGGAAGAGCACACGU
B4: target 1 U11A,C22A (mixed)
RNA 1: CACCCGUGCAAAAAUGCAGGGGUCUAAAACUGAGCGGAUAACCUCUCUAUGG
RNA 2: GGGAAUGGAUCCACAUCUACGAAUUCGUAACAUAGAGAGGAUAUCCGCUCACCGAGAUCGGAAGAGCACACGU
B5: target 1 U11G,G17A (mixed)
RNA 1: CACCCGUGCAAAAAUGCAGGGGUCUAAAACUGAGCGGAUAACCUCUCUAUGG
RNA 2: GGGAAUGGAUCCACAUCUACGAAUUCGUACCAUAAAGAGGGUAUCCGCUCACCGAGAUCGGAAGAGCACACGU
B6: target 1 insA 3' of 13,insA 3' of 5 (mixed)
RNA 1: CACCCGUGCAAAAAUGCAGGGGUCUAAAACUGAGCGGAUAACCUCUCUAUGG
RNA 2: GGGAAUGGAUCCACAUCUACGAAUUCGUACCAUAGAGAGAGUUAUCCGACUCACCGAGAUCGGAAGAGCACACGU
B7: target 1 G17U,C22A (mixed)
RNA 1: CACCCGUGCAAAAAUGCAGGGGUCUAAAACUGAGCGGAUAACCUCUCUAUGG
RNA 2: GGGAAUGGAUCCACAUCUACGAAUUCGUAACAUAUAGAGGUUAUCCGCUCACCGAGAUCGGAAGAGCACACGU
B8: target 1 insC 3' of 9,insU 3' of 2 (mixed)
RNA 1: CACCCGUGCAAAAAUGCAGGGGUCUAAAACUGAGCGGAUAACCUCUCUAUGG
RNA 2: GGGAAUGGAUCCACAUCUACGAAUUCGUACCAUAGAGAGGUUACUCCGCUCUACCGAGAUCGGAAGAGCACACGU
B9: target 1 insA 3' of 13,insU 3' of 5 (mixed)
RNA 1: CACCCGUGCAAAAAUGCAGGGGUCUAAAACUGAGCGGAUAACCUCUCUAUGG
RNA 2: GGGAAUGGAUCCACAUCUACGAAUUCGUACCAUAGAGAGAGUUAUCCGUCUCACCGAGAUCGGAAGAGCACACGU
B10: target 1 U10C,A20U (mixed)
RNA 1: CACCCGUGCAAAAAUGCAGGGGUCUAAAACUGAGCGGAUAACCUCUCUAUGG
RNA 2: GGGAAUGGAUCCACAUCUACGAAUUCGUACCUUAGAGAGGUCAUCCGCUCACCGAGAUCGGAAGAGCACACGU
B11: target 1 insG 3' of 11,insU 3' of 4 (mixed)
RNA 1: CACCCGUGCAAAAAUGCAGGGGUCUAAAACUGAGCGGAUAACCUCUCUAUGG
RNA 2: GGGAAUGGAUCCACAUCUACGAAUUCGUACCAUAGAGAGGUGUAUCCGCUUCACCGAGAUCGGAAGAGCACACGU
B12: target 1 C2G,C7U (mixed)
RNA 1: CACCCGUGCAAAAAUGCAGGGGUCUAAAACUGAGCGGAUAACCUCUCUAUGG
RNA 2: GGGAAUGGAUCCACAUCUACGAAUUCGUACCAUAGAGAGGUUAUUCGCUGACCGAGAUCGGAAGAGCACACGU
B13: target 1 insC 3' of 12,insG 3' of 3 (mixed)
RNA 1: CACCCGUGCAAAAAUGCAGGGGUCUAAAACUGAGCGGAUAACCUCUCUAUGG
RNA 2: GGGAAUGGAUCCACAUCUACGAAUUCGUACCAUAGAGAGGCUUAUCCGCUGCACCGAGAUCGGAAGAGCACACGU
B14: target 1 insU 3' of 18,insU 3' of 13 (mixed)
RNA 1: CACCCGUGCAAAAAUGCAGGGGUCUAAAACUGAGCGGAUAACCUCUCUAUGG
RNA 2: GGGAAUGGAUCCACAUCUACGAAUUCGUACCAUAUGAGAGUGUUAUCCGCUCACCGAGAUCGGAAGAGCACACGU
B15: target 1 A9G,G17A (mixed)
RNA 1: CACCCGUGCAAAAAUGCAGGGGUCUAAAACUGAGCGGAUAACCUCUCUAUGG
RNA 2: GGGAAUGGAUCCACAUCUACGAAUUCGUACCAUAAAGAGGUUGUCCGCUCACCGAGAUCGGAAGAGCACACGU
B16: target 1 insC 3' of 8,insG 3' of 4 (mixed)
RNA 1: CACCCGUGCAAAAAUGCAGGGGUCUAAAACUGAGCGGAUAACCUCUCUAUGG
RNA 2: GGGAAUGGAUCCACAUCUACGAAUUCGUACCAUAGAGAGGUUAUCCCGCGUCACCGAGAUCGGAAGAGCACACGU
B17: target 1 insA 3' of 22,insG 3' of 9 (mixed)
RNA 1: CACCCGUGCAAAAAUGCAGGGGUCUAAAACUGAGCGGAUAACCUCUCUAUGG
RNA 2: GGGAAUGGAUCCACAUCUACGAAUUCGUACACAUAGAGAGGUUAGUCCGCUCACCGAGAUCGGAAGAGCACACGU
B18: target 1 A16C,C22U (mixed)
RNA 1: CACCCGUGCAAAAAUGCAGGGGUCUAAAACUGAGCGGAUAACCUCUCUAUGG
RNA 2: GGGAAUGGAUCCACAUCUACGAAUUCGUAUCAUAGCGAGGUUAUCCGCUCACCGAGAUCGGAAGAGCACACGU
B19: target 1 insU 3' of 6,insG 3' of 6 (mixed)
RNA 1: CACCCGUGCAAAAAUGCAGGGGUCUAAAACUGAGCGGAUAACCUCUCUAUGG
RNA 2: GGGAAUGGAUCCACAUCUACGAAUUCGUACCAUAGAGAGGUUAUCCUGGCUCACCGAGAUCGGAAGAGCACACGU
B20: target 1 insU 3' of 17,insU 3' of 17 (mixed)
RNA 1: CACCCGUGCAAAAAUGCAGGGGUCUAAAACUGAGCGGAUAACCUCUCUAUGG
RNA 2: GGGAAUGGAUCCACAUCUACGAAUUCGUACCAUAGUUAGAGGUUAUCCGCUCACCGAGAUCGGAAGAGCACACGU
B21: target 1 insA 3' of 6,insU 3' of 6 (mixed)
RNA 1: CACCCGUGCAAAAAUGCAGGGGUCUAAAACUGAGCGGAUAACCUCUCUAUGG
RNA 2: GGGAAUGGAUCCACAUCUACGAAUUCGUACCAUAGAGAGGUUAUCCAUGCUCACCGAGAUCGGAAGAGCACACGU
B22: target 1 C2A,A16G (mixed)
RNA 1: CACCCGUGCAAAAAUGCAGGGGUCUAAAACUGAGCGGAUAACCUCUCUAUGG
RNA 2: GGGAAUGGAUCCACAUCUACGAAUUCGUACCAUAGGGAGGUUAUCCGCUAACCGAGAUCGGAAGAGCACACGU
B23: target 1 insA 3' of 19,insU 3' of 2 (mixed)
RNA 1: CACCCGUGCAAAAAUGCAGGGGUCUAAAACUGAGCGGAUAACCUCUCUAUGG
RNA 2: GGGAAUGGAUCCACAUCUACGAAUUCGUACCAUAAGAGAGGUUAUCCGCUCUACCGAGAUCGGAAGAGCACACGU
B24: target 1 insC 3' of 12,insC 3' of 10 (mixed)
RNA 1: CACCCGUGCAAAAAUGCAGGGGUCUAAAACUGAGCGGAUAACCUCUCUAUGG
RNA 2: GGGAAUGGAUCCACAUCUACGAAUUCGUACCAUAGAGAGGCUUCAUCCGCUCACCGAGAUCGGAAGAGCACACGU
B25: target 1 insG 3' of 14,insC 3' of 13 (mixed)
RNA 1: CACCCGUGCAAAAAUGCAGGGGUCUAAAACUGAGCGGAUAACCUCUCUAUGG
RNA 2: GGGAAUGGAUCCACAUCUACGAAUUCGUACCAUAGAGAGGCGUUAUCCGCUCACCGAGAUCGGAAGAGCACACGU
B26: target 1 insA 3' of 22,insA 3' of 3 (mixed)
RNA 1: CACCCGUGCAAAAAUGCAGGGGUCUAAAACUGAGCGGAUAACCUCUCUAUGG
RNA 2: GGGAAUGGAUCCACAUCUACGAAUUCGUACACAUAGAGAGGUUAUCCGCUACACCGAGAUCGGAAGAGCACACGU
B27: target 1 del4,del11 (mixed)
RNA 1: CACCCGUGCAAAAAUGCAGGGGUCUAAAACUGAGCGGAUAACCUCUCUAUGG
RNA 2: GGGAAUGGAUCCACAUCUACGAAUUCGUACCAUAGAGAGGUAUCCGUCACCGAGAUCGGAAGAGCACACGU
B28: target 1 G13A,A18C (mixed)
RNA 1: CACCCGUGCAAAAAUGCAGGGGUCUAAAACUGAGCGGAUAACCUCUCUAUGG
RNA 2: GGGAAUGGAUCCACAUCUACGAAUUCGUACCAUCGAGAAGUUAUCCGCUCACCGAGAUCGGAAGAGCACACGU

The binders below were run against T1, EsCas13d, nuclease-dead (assay: crRNA (strand 1, pre-loaded); Mg2+; 40 mM Tris-HCl pH 7.5, 150 mM NaCl, 6 mM MgCl2, 1 mM DTT, 0.1% Tween-20, 0.2 mg/ml BSA; 25 C; 10 min per concentration, then washed). Conditions: tags: His6-TwinStrep-SUMO cleaved; N-terminal SNAP kept (SNAP-Surface 488); label: 3' end held by stalled T7 RNA polymerase.
B1 was tested, and the Kd was 48 ± 5 nM.
B2 gave a Kd of 7.01 ± 0.33 nM.
B3 was tested, and the Kd was 19 ± 4 nM.
For B4, the Kd was 47 ± 6 nM.
In the case of B5, the Kd is reported as 74 ± 22 nM.
With B6 the Kd was 3.4 ± 0.5 nM.
In the case of B7, the Kd is reported as 31.3 ± 3 nM.
B8 showed a Kd of 13.9 ± 0.9 nM.
Binder B9 has a Kd of 4.34 ± 0.32 nM.
B10 showed a Kd of 99 ± 14 nM.
With B11 the Kd was 65 ± 15 nM.
B12 gave a Kd of 3.82 ± 0.29 nM.
B13 was tested, and the Kd was 7.6 ± 0.7 nM.
Work on B14 yielded a Kd of 38 ± 14 nM.
B15 was tested, and the Kd was 57 ± 12 nM.
Work on B16 yielded a Kd of 12.8 ± 0.8 nM.
With B17 the Kd was 19.6 ± 1 nM.
B18 gave a Kd of 57 ± 12 nM.
For B19, the Kd was 13.1 ± 0.5 nM.
B20 gave a Kd of 27.7 ± 3.2 nM.
Binder B21 has a Kd of 28.9 ± 1.4 nM.
Work on B22 yielded a Kd of 28.5 ± 2 nM.
B23 was tested, and the Kd was 23 ± 2 nM.
B24 gave a Kd of 23.9 ± 2.9 nM.
For B25, the Kd was 13.7 ± 0.9 nM.
Work on B26 yielded a Kd of 11.1 ± 0.6 nM.
B27 gave a Kd of 100 ± 40 nM.
B28 gave a Kd of 51 ± 8 nM.
